Measured values as given in PMC9482650, “Quantitative fragmentomics allow affinity mapping of interactomes” (Nature Communications, 2022).

T1: APBA2_1, Q99767
T1 sequence (Q99767 563-664, limits assumed, looked up): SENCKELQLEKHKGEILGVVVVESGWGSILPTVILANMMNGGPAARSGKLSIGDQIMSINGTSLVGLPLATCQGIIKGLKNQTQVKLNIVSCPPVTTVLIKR

T2: APBA3_1, O96018
T2 sequence (O96018 389-490, limits assumed, looked up): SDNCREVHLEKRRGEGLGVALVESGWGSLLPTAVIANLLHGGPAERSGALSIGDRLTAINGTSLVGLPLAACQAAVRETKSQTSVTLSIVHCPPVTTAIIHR

T3: ARHGAP21, Q5T5U3
T3 sequence (Q5T5U3 45-169, limits assumed, looked up): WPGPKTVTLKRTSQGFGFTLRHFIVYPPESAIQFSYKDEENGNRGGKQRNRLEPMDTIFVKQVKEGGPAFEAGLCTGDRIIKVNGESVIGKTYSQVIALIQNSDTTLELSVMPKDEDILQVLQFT

T4: DLG3_1, Q92796
T4 sequence (Q92796 125-227, limits assumed, looked up): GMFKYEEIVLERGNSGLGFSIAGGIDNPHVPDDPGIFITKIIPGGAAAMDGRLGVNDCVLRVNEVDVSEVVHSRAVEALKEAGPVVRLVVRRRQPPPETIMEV

T5: DLG3_2, Q92796
T5 sequence (Q92796 221-321, limits assumed, looked up): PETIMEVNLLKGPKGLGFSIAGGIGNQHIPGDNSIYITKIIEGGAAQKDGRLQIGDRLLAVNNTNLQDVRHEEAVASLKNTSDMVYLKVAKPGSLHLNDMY

T6: DVL3, Q92997
T6 sequence (Q92997 244-331, limits assumed, looked up): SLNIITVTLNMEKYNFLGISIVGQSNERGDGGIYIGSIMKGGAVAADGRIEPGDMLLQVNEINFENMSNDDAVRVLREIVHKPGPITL

T7: FRMPD1, Q5SYB0
T7 sequence (Q5SYB0 52-145, limits assumed, looked up): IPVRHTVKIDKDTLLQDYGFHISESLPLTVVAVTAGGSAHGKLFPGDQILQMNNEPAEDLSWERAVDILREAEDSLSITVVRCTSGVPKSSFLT

T8: GRIP1_5, Q9Y3R0
T8 sequence (Q9Y3R0 568-668, limits assumed, looked up): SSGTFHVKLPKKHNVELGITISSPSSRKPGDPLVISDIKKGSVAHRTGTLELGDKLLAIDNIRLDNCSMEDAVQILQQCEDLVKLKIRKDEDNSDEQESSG

T9: PDZD7_3, Q9H5P4
T9 sequence (Q9H5P4 857-944, limits assumed, looked up): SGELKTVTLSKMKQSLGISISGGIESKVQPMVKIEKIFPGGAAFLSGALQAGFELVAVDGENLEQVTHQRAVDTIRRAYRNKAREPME

T10: SHANK1, Q9Y566
T10 sequence (Q9Y566 658-767, limits assumed, looked up): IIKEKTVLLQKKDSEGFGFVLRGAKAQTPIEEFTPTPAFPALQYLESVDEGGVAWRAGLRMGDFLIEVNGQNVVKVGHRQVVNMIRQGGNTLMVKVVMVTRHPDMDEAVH

T11: SNTB1, Q13884
T11 sequence (Q13884 107-205, limits assumed, looked up): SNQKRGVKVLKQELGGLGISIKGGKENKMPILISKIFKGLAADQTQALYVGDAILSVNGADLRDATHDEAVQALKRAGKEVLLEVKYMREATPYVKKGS

T12: SYNJ2BP, P57105
T12 sequence (P57105 8-110, limits assumed, looked up): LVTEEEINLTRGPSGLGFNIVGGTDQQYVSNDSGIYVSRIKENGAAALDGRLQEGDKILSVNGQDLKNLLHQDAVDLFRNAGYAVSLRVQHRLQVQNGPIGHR

T13: TJP3_3, O95049
T13 sequence (O95049 375-456, limits assumed, looked up): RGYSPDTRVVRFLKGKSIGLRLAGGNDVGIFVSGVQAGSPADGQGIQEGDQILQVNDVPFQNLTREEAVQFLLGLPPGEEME


The binders below were run against T1, APBA2_1, Q99767 (assay: holdup assay). Settings: plain residues with an end cap or a label only (N-terminal biotin on a linker: ado-ado).
Design: key: below the threshold = too weak to quantify, mostly under pKd 3.1 to 4

pKd	Binder
below the threshold	FVFESRKEIL [TBPL1, P62380]
below the threshold	GTMFLRETSL [GUCY1A2, P33402]
below the threshold	GQNMTVSVVI [PRLHR, P49683]

Each binder was assayed against T2, APBA3_1, O96018 (assay: holdup assay). Settings: plain residues with an end cap or a label only (N-terminal biotin on a linker: ado-ado).
Design: key: below the threshold = too weak to quantify, mostly under pKd 3.1 to 4

pKd	Binder
below the threshold	FVFESRKEIL [TBPL1, P62380]
below the threshold	GTMFLRETSL [GUCY1A2, P33402]
below the threshold	GQNMTVSVVI [PRLHR, P49683]

The binders below were run against T3, ARHGAP21, Q5T5U3 (assay: holdup assay). Settings: plain residues with an end cap or a label only (N-terminal biotin on a linker: ado-ado).
Design: key: below the threshold = too weak to quantify, mostly under pKd 3.1 to 4

pKd	Binder
3.83	FVFESRKEIL [TBPL1, P62380]
4.7	GTMFLRETSL [GUCY1A2, P33402]
below the threshold	GQNMTVSVVI [PRLHR, P49683]

Each binder was assayed against DLG1_2, Q12959 (assay: holdup assay). Settings: plain residues with an end cap or a label only (N-terminal biotin on a linker: ado-ado).
Design: key: below the threshold = too weak to quantify, mostly under pKd 3.1 to 4

DLG1_2, Q12959, sequence (Q12959 314-412): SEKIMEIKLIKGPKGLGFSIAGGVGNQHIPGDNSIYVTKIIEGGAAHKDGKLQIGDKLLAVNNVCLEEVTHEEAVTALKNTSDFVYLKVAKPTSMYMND

pKd	Binder
below the threshold	FVFESRKEIL [TBPL1, P62380]
4.81	GTMFLRETSL [GUCY1A2, P33402]
below the threshold	GQNMTVSVVI [PRLHR, P49683]

These binders were tested against T4, DLG3_1, Q92796 (assay: holdup assay). Settings: plain residues with an end cap or a label only (N-terminal biotin on a linker: ado-ado).
Design: key: below the threshold = too weak to quantify, mostly under pKd 3.1 to 4

pKd	Binder
below the threshold	FVFESRKEIL [TBPL1, P62380]
below the threshold	GTMFLRETSL [GUCY1A2, P33402]
below the threshold	GQNMTVSVVI [PRLHR, P49683]

Each binder was assayed against T5, DLG3_2, Q92796 (assay: holdup assay). Settings: plain residues with an end cap or a label only (N-terminal biotin on a linker: ado-ado).
Design: key: below the threshold = too weak to quantify, mostly under pKd 3.1 to 4

pKd	Binder
below the threshold	FVFESRKEIL [TBPL1, P62380]
4.51	GTMFLRETSL [GUCY1A2, P33402]
4.31	GQNMTVSVVI [PRLHR, P49683]

Each binder was assayed against T6, DVL3, Q92997 (assay: holdup assay). Settings: plain residues with an end cap or a label only (N-terminal biotin on a linker: ado-ado).
Design: key: below the threshold = too weak to quantify, mostly under pKd 3.1 to 4

pKd	Binder
below the threshold	FVFESRKEIL [TBPL1, P62380]
below the threshold	GTMFLRETSL [GUCY1A2, P33402]
below the threshold	GQNMTVSVVI [PRLHR, P49683]

Each binder was assayed against T7, FRMPD1, Q5SYB0 (assay: holdup assay). Settings: plain residues with an end cap or a label only (N-terminal biotin on a linker: ado-ado).
Design: key: below the threshold = too weak to quantify, mostly under pKd 3.1 to 4

pKd	Binder
below the threshold	FVFESRKEIL [TBPL1, P62380]
below the threshold	GTMFLRETSL [GUCY1A2, P33402]
below the threshold	GQNMTVSVVI [PRLHR, P49683]

Each binder was assayed against GRID2IP_2, A4D2P6 (assay: holdup assay). Settings: plain residues with an end cap or a label only (N-terminal biotin on a linker: ado-ado).
Design: key: below the threshold = too weak to quantify, mostly under pKd 3.1 to 4

GRID2IP_2, A4D2P6, sequence (A4D2P6 272-370): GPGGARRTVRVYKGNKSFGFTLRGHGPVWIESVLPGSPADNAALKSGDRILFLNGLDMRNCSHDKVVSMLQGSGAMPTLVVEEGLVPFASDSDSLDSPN

pKd	Binder
below the threshold	FVFESRKEIL [TBPL1, P62380]
4.62	GTMFLRETSL [GUCY1A2, P33402]
below the threshold	GQNMTVSVVI [PRLHR, P49683]

Each binder was assayed against T8, GRIP1_5, Q9Y3R0 (assay: holdup assay). Settings: plain residues with an end cap or a label only (N-terminal biotin on a linker: ado-ado).
Design: key: below the threshold = too weak to quantify, mostly under pKd 3.1 to 4

pKd	Binder
below the threshold	FVFESRKEIL [TBPL1, P62380]
below the threshold	GTMFLRETSL [GUCY1A2, P33402]
below the threshold	GQNMTVSVVI [PRLHR, P49683]

The binders below were run against GRIP2_4, Q9C0E4 (assay: holdup assay). Settings: plain residues with an end cap or a label only (N-terminal biotin on a linker: ado-ado).
Design: key: below the threshold = too weak to quantify, mostly under pKd 3.1 to 4

GRIP2_4, Q9C0E4, sequence (Q9C0E4 446-548): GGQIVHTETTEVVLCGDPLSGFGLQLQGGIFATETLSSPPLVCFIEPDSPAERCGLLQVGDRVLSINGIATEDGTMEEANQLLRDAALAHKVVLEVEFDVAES

pKd	Binder
below the threshold	FVFESRKEIL [TBPL1, P62380]
below the threshold	GTMFLRETSL [GUCY1A2, P33402]
below the threshold	GQNMTVSVVI [PRLHR, P49683]

What follows are binders tested against HTRA1, Q92743 (assay: holdup assay). Settings: plain residues with an end cap or a label only (N-terminal biotin on a linker: ado-ado).
Design: key: below the threshold = too weak to quantify, mostly under pKd 3.1 to 4

HTRA1, Q92743, sequence (Q92743 360-477): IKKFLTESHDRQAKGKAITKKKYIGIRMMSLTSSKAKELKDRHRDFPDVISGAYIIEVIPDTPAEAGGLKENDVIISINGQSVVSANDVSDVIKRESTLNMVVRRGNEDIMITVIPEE

pKd	Binder
3.89	FVFESRKEIL [TBPL1, P62380]
3.77	GTMFLRETSL [GUCY1A2, P33402]
4.82	GQNMTVSVVI [PRLHR, P49683]

These binders were tested against Inadl_4, Q8NI35 (assay: holdup assay). Settings: plain residues with an end cap or a label only (N-terminal biotin on a linker: ado-ado).
Design: key: below the threshold = too weak to quantify, mostly under pKd 3.1 to 4

Inadl_4, Q8NI35, sequence (Q8NI35 547-651): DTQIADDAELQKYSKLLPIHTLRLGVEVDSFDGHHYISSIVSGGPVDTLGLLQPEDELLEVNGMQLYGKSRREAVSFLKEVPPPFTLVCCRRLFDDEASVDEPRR

pKd	Binder
below the threshold	FVFESRKEIL [TBPL1, P62380]
below the threshold	GTMFLRETSL [GUCY1A2, P33402]
below the threshold	GQNMTVSVVI [PRLHR, P49683]

These binders were tested against Inadl_6, Q8NI35 (assay: holdup assay). Settings: plain residues with an end cap or a label only (N-terminal biotin on a linker: ado-ado).
Design: key: below the threshold = too weak to quantify, mostly under pKd 3.1 to 4

Inadl_6, Q8NI35, sequence (Q8NI35 1058-1167): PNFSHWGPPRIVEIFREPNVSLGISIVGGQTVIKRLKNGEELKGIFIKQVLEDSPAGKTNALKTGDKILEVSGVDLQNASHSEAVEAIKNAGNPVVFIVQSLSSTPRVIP

pKd	Binder
below the threshold	FVFESRKEIL [TBPL1, P62380]
4.84	GTMFLRETSL [GUCY1A2, P33402]
below the threshold	GQNMTVSVVI [PRLHR, P49683]

Each binder was assayed against MAGI2_5, Q86UL8 (assay: holdup assay). Settings: plain residues with an end cap or a label only (N-terminal biotin on a linker: ado-ado).
Design: key: below the threshold = too weak to quantify, mostly under pKd 3.1 to 4

MAGI2_5, Q86UL8, sequence (Q86UL8 915-1017): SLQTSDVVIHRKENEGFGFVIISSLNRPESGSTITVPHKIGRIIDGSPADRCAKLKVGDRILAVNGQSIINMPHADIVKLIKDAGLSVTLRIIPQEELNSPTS

pKd	Binder
below the threshold	FVFESRKEIL [TBPL1, P62380]
3.98	GTMFLRETSL [GUCY1A2, P33402]
below the threshold	GQNMTVSVVI [PRLHR, P49683]

These binders were tested against MAGI2_6, Q86UL8 (assay: holdup assay). Settings: plain residues with an end cap or a label only (N-terminal biotin on a linker: ado-ado).
Design: key: below the threshold = too weak to quantify, mostly under pKd 3.1 to 4

MAGI2_6, Q86UL8, sequence (Q86UL8 1141-1229): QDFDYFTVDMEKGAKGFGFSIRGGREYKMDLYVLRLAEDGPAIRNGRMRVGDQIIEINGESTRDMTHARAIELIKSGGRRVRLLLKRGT

pKd	Binder
below the threshold	FVFESRKEIL [TBPL1, P62380]
4.51	GTMFLRETSL [GUCY1A2, P33402]
below the threshold	GQNMTVSVVI [PRLHR, P49683]

What follows are binders tested against MAST1, Q9Y2H9 (assay: holdup assay). Settings: plain residues with an end cap or a label only (N-terminal biotin on a linker: ado-ado).
Design: key: below the threshold = too weak to quantify, mostly under pKd 3.1 to 4

MAST1, Q9Y2H9, sequence (Q9Y2H9 962-1065): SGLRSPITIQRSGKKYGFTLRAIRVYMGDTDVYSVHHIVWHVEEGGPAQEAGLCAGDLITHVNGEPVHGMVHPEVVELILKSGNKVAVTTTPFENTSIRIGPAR

pKd	Binder
4.21	FVFESRKEIL [TBPL1, P62380]
5.08	GTMFLRETSL [GUCY1A2, P33402]
3.9	GQNMTVSVVI [PRLHR, P49683]

What follows are binders tested against PDLIM1, O00151 (assay: holdup assay). Settings: plain residues with an end cap or a label only (N-terminal biotin on a linker: ado-ado).
Design: key: below the threshold = too weak to quantify, mostly under pKd 3.1 to 4

PDLIM1, O00151, sequence (O00151 1-87): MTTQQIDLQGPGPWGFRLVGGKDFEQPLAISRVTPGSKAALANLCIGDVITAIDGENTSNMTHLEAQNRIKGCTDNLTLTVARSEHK

pKd	Binder
below the threshold	FVFESRKEIL [TBPL1, P62380]
3.78	GTMFLRETSL [GUCY1A2, P33402]
below the threshold	GQNMTVSVVI [PRLHR, P49683]

These binders were tested against T9, PDZD7_3, Q9H5P4 (assay: holdup assay). Settings: plain residues with an end cap or a label only (N-terminal biotin on a linker: ado-ado).
Design: key: below the threshold = too weak to quantify, mostly under pKd 3.1 to 4

pKd	Binder
3.99	FVFESRKEIL [TBPL1, P62380]
4.97	GTMFLRETSL [GUCY1A2, P33402]
4.4	GQNMTVSVVI [PRLHR, P49683]

Each binder was assayed against SCRIB_2, Q14160 (assay: holdup assay). Settings: plain residues with an end cap or a label only (N-terminal biotin on a linker: ado-ado).
Design: key: below the threshold = too weak to quantify, mostly under pKd 3.1 to 4

SCRIB_2, Q14160, sequence (Q14160 857-960): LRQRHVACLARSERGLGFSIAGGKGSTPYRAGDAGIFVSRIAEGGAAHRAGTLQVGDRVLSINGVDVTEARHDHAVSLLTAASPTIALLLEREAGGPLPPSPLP

pKd	Binder
below the threshold	FVFESRKEIL [TBPL1, P62380]
5.15	GTMFLRETSL [GUCY1A2, P33402]
below the threshold	GQNMTVSVVI [PRLHR, P49683]

The binders below were run against T10, SHANK1, Q9Y566 (assay: holdup assay). Settings: plain residues with an end cap or a label only (N-terminal biotin on a linker: ado-ado).
Design: key: below the threshold = too weak to quantify, mostly under pKd 3.1 to 4

pKd	Binder
below the threshold	FVFESRKEIL [TBPL1, P62380]
4.33	GTMFLRETSL [GUCY1A2, P33402]
below the threshold	GQNMTVSVVI [PRLHR, P49683]

The binders below were run against T11, SNTB1, Q13884 (assay: holdup assay). Settings: plain residues with an end cap or a label only (N-terminal biotin on a linker: ado-ado).
Design: key: below the threshold = too weak to quantify, mostly under pKd 3.1 to 4

pKd	Binder
below the threshold	FVFESRKEIL [TBPL1, P62380]
5.39	GTMFLRETSL [GUCY1A2, P33402]
4.15	GQNMTVSVVI [PRLHR, P49683]

Each binder was assayed against T12, SYNJ2BP, P57105 (assay: holdup assay). Settings: plain residues with an end cap or a label only (N-terminal biotin on a linker: ado-ado).
Design: key: below the threshold = too weak to quantify, mostly under pKd 3.1 to 4

pKd	Binder
below the threshold	FVFESRKEIL [TBPL1, P62380]
5.41	GTMFLRETSL [GUCY1A2, P33402]
3.47	GQNMTVSVVI [PRLHR, P49683]

What follows are binders tested against T13, TJP3_3, O95049 (assay: holdup assay). Settings: plain residues with an end cap or a label only (N-terminal biotin on a linker: ado-ado).
Design: key: below the threshold = too weak to quantify, mostly under pKd 3.1 to 4

pKd	Binder
below the threshold	FVFESRKEIL [TBPL1, P62380]
below the threshold	GTMFLRETSL [GUCY1A2, P33402]
below the threshold	GQNMTVSVVI [PRLHR, P49683]
